The target of one assay is T1, human FGFR1c (human, UniProt P11362 22-822).
T1 construct: Full length (GenBank NP-075598), expressed on transfected 293T cells; also called huFGFR1c; FGFR1c alone
Kind of assay: flow cytometry, transfected HEK293T.

The target of assay [1] is T2, huBeta_Klotho (1-507) (muBetaKLOTHO 506F-1045S) (human; murine, UniProt Q99N32 1-1043).
T2 construct: also called Chimera 2; Construct 2
Kind of assay: flow cytometry, transfected HEK-293T.

Assay [2] addresses T3, huBeta_Klotho (1-633, 852-1044) (muBeta KLOTHO 632G-849Q) (human; murine, UniProt Q86Z14 1-1044).
T3 construct: also called Chimera 10; Construct 10
Kind of assay: flow cytometry, transfected HEK-293T. A general note: A flow cytometer gives signals particle by particle.

Assay [3] concerns the target T4, huBeta_Klotho (1-736, 967-1044) (muBeta KLOTHO 735A-963S) (human; murine, UniProt Q86Z14 1-1044).
T4 construct: also called Chimera 11; Construct 11
Put plainly: flow cytometry, transfected HEK-293T.

The next assay deals with T5, murine β-Klotho (murine, UniProt Q99N32 1-1043).
T5 construct: Full length (GenBank NP-112457), transiently expressed on HEK-293T cells; also called mu β-klotho; mouse β-Klotho
T5 sequence: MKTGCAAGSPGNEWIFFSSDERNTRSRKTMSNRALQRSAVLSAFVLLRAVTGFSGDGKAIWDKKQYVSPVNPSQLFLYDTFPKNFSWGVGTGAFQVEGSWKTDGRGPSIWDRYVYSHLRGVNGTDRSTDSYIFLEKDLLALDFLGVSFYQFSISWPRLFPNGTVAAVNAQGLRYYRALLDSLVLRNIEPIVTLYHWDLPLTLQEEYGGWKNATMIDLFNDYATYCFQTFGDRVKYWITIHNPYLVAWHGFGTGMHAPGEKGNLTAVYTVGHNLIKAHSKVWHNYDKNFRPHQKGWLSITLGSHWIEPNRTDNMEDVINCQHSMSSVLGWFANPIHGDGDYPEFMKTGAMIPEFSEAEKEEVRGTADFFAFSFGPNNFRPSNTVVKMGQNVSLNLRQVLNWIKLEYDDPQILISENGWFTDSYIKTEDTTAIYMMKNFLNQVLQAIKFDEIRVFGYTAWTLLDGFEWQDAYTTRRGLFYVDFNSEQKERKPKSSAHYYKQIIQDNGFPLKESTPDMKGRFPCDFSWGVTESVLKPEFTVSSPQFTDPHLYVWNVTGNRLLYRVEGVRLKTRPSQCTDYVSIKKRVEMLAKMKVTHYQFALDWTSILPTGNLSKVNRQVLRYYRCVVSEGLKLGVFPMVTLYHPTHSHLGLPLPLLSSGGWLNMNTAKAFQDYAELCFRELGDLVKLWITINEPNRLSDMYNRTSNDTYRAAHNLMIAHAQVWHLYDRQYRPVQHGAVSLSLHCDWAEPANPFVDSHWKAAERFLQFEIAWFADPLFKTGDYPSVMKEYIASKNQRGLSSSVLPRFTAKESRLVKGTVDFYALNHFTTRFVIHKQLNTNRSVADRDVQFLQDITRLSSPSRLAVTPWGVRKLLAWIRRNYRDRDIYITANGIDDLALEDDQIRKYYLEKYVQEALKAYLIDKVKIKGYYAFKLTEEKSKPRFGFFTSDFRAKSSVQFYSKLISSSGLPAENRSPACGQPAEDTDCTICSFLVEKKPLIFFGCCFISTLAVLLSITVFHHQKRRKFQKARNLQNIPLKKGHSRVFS
Put plainly: flow cytometry, transfected HEK-293T.

The target in assay [4] is T6, huBeta_Klotho (1-301, 509-743, 967-1044) (muBeta KLOTHO 302-506, 742-964) (human; murine, UniProt Q86Z14 1-1044).
T6 construct: also called Chimera 14; Construct 14
T6 chain: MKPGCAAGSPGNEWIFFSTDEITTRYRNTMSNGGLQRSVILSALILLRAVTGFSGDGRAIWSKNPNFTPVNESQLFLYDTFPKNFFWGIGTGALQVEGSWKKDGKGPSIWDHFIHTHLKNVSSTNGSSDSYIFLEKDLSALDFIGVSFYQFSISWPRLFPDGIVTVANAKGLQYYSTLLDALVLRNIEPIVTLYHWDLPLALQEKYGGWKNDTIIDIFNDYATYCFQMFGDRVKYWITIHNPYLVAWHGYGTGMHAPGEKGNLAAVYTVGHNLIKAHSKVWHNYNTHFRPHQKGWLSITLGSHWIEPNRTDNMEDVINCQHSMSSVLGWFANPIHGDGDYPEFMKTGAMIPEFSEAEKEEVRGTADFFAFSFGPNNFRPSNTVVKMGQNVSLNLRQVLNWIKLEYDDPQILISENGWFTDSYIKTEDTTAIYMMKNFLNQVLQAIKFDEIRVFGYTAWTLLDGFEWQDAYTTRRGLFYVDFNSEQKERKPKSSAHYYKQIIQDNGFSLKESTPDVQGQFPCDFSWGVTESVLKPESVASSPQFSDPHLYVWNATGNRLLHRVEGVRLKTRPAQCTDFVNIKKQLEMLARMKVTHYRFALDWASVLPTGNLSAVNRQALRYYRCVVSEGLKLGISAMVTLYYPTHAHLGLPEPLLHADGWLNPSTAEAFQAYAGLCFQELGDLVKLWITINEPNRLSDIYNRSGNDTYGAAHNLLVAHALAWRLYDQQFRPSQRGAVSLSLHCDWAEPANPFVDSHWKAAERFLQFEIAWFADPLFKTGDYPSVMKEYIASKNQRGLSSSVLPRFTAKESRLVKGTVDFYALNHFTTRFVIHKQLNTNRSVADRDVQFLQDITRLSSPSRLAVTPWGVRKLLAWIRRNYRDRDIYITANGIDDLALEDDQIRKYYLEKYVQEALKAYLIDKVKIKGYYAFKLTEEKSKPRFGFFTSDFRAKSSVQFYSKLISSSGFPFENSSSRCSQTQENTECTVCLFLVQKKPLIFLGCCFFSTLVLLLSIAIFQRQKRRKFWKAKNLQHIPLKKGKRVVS
Put plainly: flow cytometry, transfected HEK-293T.

B1: 54A1.1 (antibody, V domains shown)
VH: QVQLVQSGAEVKKPGASVKVSCKASGYTFTSYDINWVRQATGQGLEWMGWMNPHSGNTGYAQKFQGRVTMTRNTSINTAYMELSSLRSEDTAVYYCAKYNWNYGAFDFWGQGTMVTVSS
VL: DIQMAQSPSSLSASVGDRVTITCQASQDISIYLNWYQLKPGKAPKLLIYDVSNLETGVPSRFSGGGSGTDFTFTISSLQPEDIATYYCQQYDNLPLTFGPGTKVDIKR
With B1, the binding result with human FGFR1c is “no binding”; in assay [1], “binds”; in assay [2] it was “binds”; in assay [3], “binds”; with murine β-Klotho, “no binding”; in assay [4] it was “no binding”.
